Source: the nanobody polyreactivity screen of Harvey et al. (2022)

assay: yeast display, Sf9 membrane polyspecificity reagent, FACS + sequencing; frameworks hold sequencing errors
How it was run: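 A synthetic nanobody library was expressed on Saccharomyces cerevisiae BJ5465 by galactose induction for 36–48 hours. The library was stained for 1 hour at 4 °C with 10% biotinylated, detergent-solubilized Sf9 membrane reagent and enriched with streptavidin microbeads before FACS. Low and high (top ~1%) gates were set on anti-HA fluorescence for expression and streptavidin fluorescence for reagent binding, and each polyreactivity label reflects the gate of origin.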

Sequence	polyreactivity (PSR sort gate)
QVQLVESGRGLVQAGGSLRLSCASSGRIFARNAMGWYRKAPGQEREFVAAITFSGGSTYYAESVKGRFTISRDNAKNTVYLQMNSLKPEDTAVYYCAARSFDDWGQGTQVTVSS	high polyreactivity
QVQLVESGRGLVQAGGSLRLSCDSSGLTFTYNAMGWYRQAPGKERELVAVISYGGGSTYYADSVKGRFTISRDNAKNTVYLQMNSLNPEDNAVYYCAAVYGGYLYYYGGYAEYDYWGQGTQVTVSS	low polyreactivity
QVQLVESGRGLVQAGGSLRLSFAASGITFGPNEMGWYRQAPGKERELVAAISKSGGTTYYADSVKGRFTISRDNAKNTDYLQMNSLKPEDTAVYYCAARCYPYYASFRYDYWGQGTQVTVSS	high polyreactivity
QVQLVESGRGLVQAGGTLRLSCAASGSTFNKYAMGWYRQAPGKERELVAAIRSNGVRTYYADSVKVRLTISRDNAKNTVYLQMNSLNPEDTAVYYCNKRYTYRYDYWGQGTQVTVSS	high polyreactivity
QVQLVESGVALVQAAGSLRLRCAAYGSTFSYNAMGWYRQATGKERELVAAISGSGGTTYYADSVKGRFTISRDNAKNTVYLQMNSLKPEDTAVYYCAAELTRYRYFYHKRPMDYWGQGTQVTVSS	low polyreactivity
QVQLVESGVCLDQAGGSLRLSCAASGRTFDYNAMGWYSQAPGKERELVAAIDSDGSTNYADSVKGRFTISRDNAKNTVYLQMNSLKPEDTAVYYCAASTLVVWKPGWQVEYGYWGQGTQVTVSS	low polyreactivity
QVQLVESGVCLVQAGGSLRLSCAASGRIFYNYAMGWYRQAPGKERELVADISSSGTLTYYSDSVKGRFTISRDNAKNTVYLHMNSLKPEDTAVYYCAARYWFRFQYDYWGQGTQLTVSS	high polyreactivity
QVQLVESGVGIVQAGGSLRLSCAASGFTFSSNAMGWYSQAPGKEREFVADISIIGGDTTYADSVKGRFTISRDNAKNTVYFQMNSLKAEDTADYYCIAKPPGWFWGGFSYNRYYYWGQGTQVTVSS	low polyreactivity
QVQLVESGVGIVQAGGSLRLSCAASGRIFARNAMVWYRHAPGKERELVATIRVGGGSTYYADSVKGRFTISRDNAKNTVYLQMNSLKPEDTAVYYCAVRQLYSYPGDRRGYYWGQGTQVTVSS	low polyreactivity
QVQLVESGVGIVQAGGSLRLSCAASGRISYFNAMGWYRQAPGKERELVAAIRRSGGITYYADSVKGRFTISRDNAKNTVYLQMNSLKPEDTAVYYFATERYSWAERDFGYWGQGTLVTVSS	low polyreactivity
QVQLVESGVGLDQAGGSLRLSCAASGSTFFVNAMGWYRQAPGKEMELVAAISTSGGRTYYADSVKGRFRISRDNAKNNLYLQMKSLKPEDTAVYYGAAVSLSGGYGEYDYWGQGTKVTVSS	high polyreactivity
QVQLVESGVGLGQAGGSLRLSCAASGRTYWRYAMGWYRQAPGKETELVASINWNGGSTYYADSVKGRFTNSRDNAKNTVYLQMNSLKPEDTAVYYCAALRWPVYLFDYWGQGTQVTVSS	high polyreactivity
QVQLVESGVGLVQAGGILRLSCAASGSIFWPNAMGWYRHAPGKERELVAGISYSGGRTYYADSVKARFTISRDNEKNTVYLQMNSLKPEDTAVYYCTARRSSGYGYWGQGTHVTVSS	high polyreactivity
QVQLVESGVGLVQAGGSHRLSCSASGSIIEENSMGWYRQAPGKERELVAAITIGGRTNYADSVKGRFTISRDNAKNTVYLQMNSLKPEDTAVYYCAADLSSNKYFRFWTRYYYWGQGTQVTVSS	low polyreactivity
QVQLVESGVGLVQAGGSLLLSCSSSGRIFDLNAMGWYRQAPGKERELVAVIDRDGSTYYADSVKGRFTISRDNAKNTVYLQMNSLKPEDTAVYYCNKYWYSRHVRYWAYYAEQRYDYWGQGTQVTVSS	low polyreactivity
QVQLVESGVGLVQAGGSLRISCAASRSTFWNNCMGWYRQAPGKERDLVAAITVRGGSTYYADSVKGRFTISRDNAKNTVYLQMNSLKPEDTAVYFCAADRWLYSWFFNYDQGDYWGQGTQVSVSS	low polyreactivity
QVQLVESGVGLVQAGGSLRLICAASGFIFFGNAMGWYRQAPGKERQLVAVITWSGGSTYADSVKGRFTISRDNAKNTVYLQMNSLKPEDTAVYYCAADQQTWWQYSLINEYDYWGQGTQVTVSS	low polyreactivity
QVQLVESGVGLVQAGGSLRLLCAASGSIFTTYPMGWYRPAPGKERELVAAITSSSGSTYYADSVKGRFTISRDNAKNTVYLQMNSLKPEDTAVYYCNATYSAAVDYWGQGTQVTVSS	low polyreactivity
QVQLVESGVGLVQAGGSLRLRCAASGSILGGNAMGWYRQAPGKERELVAAITFSGGGTYYADSVKGRFTISRDNAKNTVYLQMNSRKPEDTAVYYCNAFAPDYYHVYPAEDYWGQGTQVTVSS	low polyreactivity
QVQLVESGVGLVQAGGSLRLSCAASGFIFGYYTMGWYRQAPGNERELVAAITYRGGSTYYAYSVKGRFTISRDNAKNTVYLQMNRLKPEDTAVYYCAIRTNVGHDSWGQGTEVTVSS	high polyreactivity
QVQLVESGVGLVQAGGSLRLSCAASGFIFYPNAMGWYRQAPGKEREWVAVITGGGSTRYADSVKGRFTISRDNAKNTVYLQMNSLKPEDTAVYYCAVGTVYLTYRGYEYWGQGTQVTVSS	high polyreactivity
QVQLVESGVGLVQAGGSLRLSCAASGFILGQYTMGWYRQAPGKERELVAAISSSGSTNYADSVKGRFTISRDNAKNTVYLQMNSLKPEDTAVYYCNGDGNPDFYYSFYDEYDYWGQGTQVTVSS	low polyreactivity

Sequence	polyreactivity (PSR sort gate)
QVQLVESGVGLVQAGGSLRLSCAASGFSFAVYGMGSYIQAPGKQRELVAAISTGDSTKYADSVKARFTISRDNAKNTVYLQKNSLKPEDTEVYYCAARIPWSPWLGYWGQGTQVTVST	high polyreactivity
QVQLVESGVGLVQAGGSLRLSCAASGFTFCPYDKGWYRQAPGKERELVAVIIGGDSTNYADSVKGRFTISRDNAKNTVYLLMNSLKPEDTAVYYCASDYIDRVGWMDYWGQGTQVTVSS	low polyreactivity
QVQLVESGVGLVQAGGSLRLSCAASGFTFNYNAMGWYRQAPGKERELVADISRSGGSTYYADSVKGRFTISRDNAKNTVYLQMNSLKPEDTPVYYCAAVRAIGKYGYWGHGTQVTVSS	high polyreactivity
QVQLVESGVGLVQAGGSLRLSCAASGITFEGYAMGWYRQAPGKERELVAAIRSSGTSTYYADSVKGRFTMSRDNAKNTVYLQMNSLKPEDTAVYYCNRARSSSRYDYWGQGTQVTVSS	low polyreactivity
QVQLVESGVGLVQAGGSLRLSCAASGLILANYAMGWYRQAPGKERELVAAISSSGGSTYYADSVKGRFTISRDNAKNTVYLQMNSLKPEDTAVYYCAAYPLYRRRWTGDYWGQGTQVTVSS	high polyreactivity
QVQLVESGVGLVQAGGSLRLSCAASGLILYTYAMGWYRQAPGKESELVAAINSGGRTNYADSVKGRFTISRDNAKNSVYLQMNSLKPEDTAVYYCAADYGSRVRGFNYWGQGTQVTVSS	low polyreactivity
QVQLVESGVGLVQAGGSLRLSCAASGLTFVDNVMGWYRQAPRTERELVADISSSGGSTYADSVKGRFTISRDNAKNTVYFQMNSLKPEDTAVYYCAAGDDSSGEQVDYWGQGTQVTVSS	low polyreactivity
QVQLVESGVGLVQAGGSLRLSCAASGLTFYSYAMGWSRQAPGKERELVATISRNGGPTRYADSVKGRFTISRDNAKNTVYLQMNSLKPEDTAVYYCTYVQSGEYDYWGQGTQVTVSS	high polyreactivity
QVQLVESGVGLVQAGGSLRLSCAASGNTFGKYAMGWYRQAPGTERELVATITRRGGSTYYADSVKGRFTISRDKAKNSVYLQMNSLKPEDTAVYYCNRAVTYVTYVYWGQGTQVTVSS	high polyreactivity
QVQLVESGVGLVQAGGSLRLSCAASGRIFNDNAMGWYSQAPGKERELVAAISTGGSTNYADSVKWRFTISRDNAKNTVYLQMNSLKPEDTEVYYCAADHPVTYETSKFDYWGQGTQVTVSS	low polyreactivity
QVQLVESGVGLVQAGGSLRLSCAASGRIFNRYAMGWYRQAPGKERELVAAITGSGGRTYYADSVKGRFTISRDNAKNTVYVVRISMKPEDTAVYFCAKYYPEYPAYGRGDYWGQGTQVTVSS	low polyreactivity
QVQLVESGVGLVQAGGSLRLSCAASGRIFNSYAMGWYRQAPGKERELVAAISRNGGITYYADSVKGRFTISRDNAKNTVYLQMNSLKPEDTAVYYCAADGLTPKAIWTSDYWGQGTQVTVSS	high polyreactivity
QVQLVESGVGLVQAGGSLRLSCAASGRIFRLYAMGWYRQAPGKERELVAAISSSGGDTYYADSVKGRFTISRDNAKNTVYLQMNSLKPEDTAVYDCNARKRYANVHYNYWGQGTQVTVSS	high polyreactivity
QVQLVESGVGLVQAGGSLRLSCAASGRIFTSNAMGWYRQAPGKERELVAAIHRGGSTYYADSVKGRFTISRDNAKNTVYLQMNSLKPEDTAVYYCNAYRKSARSGGHYDYWGQGTQVTVSS	low polyreactivity
QVQLVESGVGLVQAGGSLRLSCAASGRIFYGYAMGWYRQAPGKEREFVARINVSGTSTFYADSVKGRFTISRDNAKNTVYLQMSSLKPEDTAVYDCAARGLPPNDYCYVHGYIMDYWGQGTQVTVSS	low polyreactivity
QVQLVESGVGLVQAGGSLRLSCAASGRIFYRNAMGWYRQAPGKEREFVAAITFRSGGTYYADSVKGRFTISRDNAKNTVYLQMNSLKPEDTAVYYCATRYLGASRYGYWGQGTQVTVSS	high polyreactivity
QVQLVESGVGLVQAGGSLRLSCAASGRILYPNTMGWYRQAPGKERELVAAISGSGYRTYYADSVKGRFTISRDNAKNTVYLQMNSLKPEDTAVYYCAASGYWPFRSGFGYWGQGTQVTVSS	high polyreactivity
QVQLVESGVGLVQAGGSLRLSCAASGRTFAIYTMGWYRQAPGKERELVARISIRGGSTYYADSVKGRFTISRDTAKITFYLQLTSLKPEDNAVYYCAAVGYFGGYRYDYWGQGTQVSVSS	high polyreactivity
QVQLVESGVGLVQAGGSLRLSCAASGRTFDVYAMGWYRQAPGKERELVAAISRGGSTYYADSVKGRFTISRDNAKNTVYLQMNSLKPEDTAVYYCNKAYSSTRGYGYWGQGTQVTVSS	high polyreactivity
QVQLVESGVGLVQAGGSLRLSCAASGRTFPYYAMGWYRQAPGKERELVAAISRRGASTYYADSVKGRFTISRDNAKNTVYLQINSLKPEDTAVYYCNAVYRGYYSGELDYWGQGTQVTVSS	high polyreactivity
QVQLVESGVGLVQAGGSLRLSCAASGRTFRSYTMGWYRQAPGKERELVAAINRGDRTYADSVKGRFTISRDNAKNTVYLQMNSLKPEDTAVYYCNARYYTHRYDYWGQGTQVTVSS	high polyreactivity
